Data as given in patent US20050118674A1, “Engineering of Controlled Deamidation Rates in Peptides, Proteins, and Similar Structures” (priority 2003, published 2005).

Assay: First-order nonenzymatic deamidation of pentapeptides in Tris buffer
Type: physicochemical
Settings: pH 7.4, 37.0° C., 0.15 M Tris HCl; Asn pentapeptides
In short: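 Pentapeptides containing Asn or Gln in varied flanking sequences incubated at 37° C., pH 7.4, 0.15 M Tris buffer; first-order deamidation rates measured. Some Asn values estimated from remaining data; many Gln values derived from surface fitting rather than measured.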

Row | Substance | First-Order Deamidation Halftimes of GlyXxxAsnYyyGly
1 | GlyThrAsnGluGly (GTNEG; printed: GlyThrAsnGluGly) | 60.8 days
2 | GlyValAsnCysGly (GVNCG; printed: GlyValAsnCysGly) | 63.2 days
3 | GlyMetAsnIleGly (GMNIG; printed: GlyMetAsnIleGly) | 275 days
4 | GlyPheAsnGlyGly (GFNGG; printed: GlyPheAsnGlyGly) | 1.15 days
5 | GlyGlyAsnPheGly (GGNFG; printed: GlyGlyAsnPheGly) | 64.0 days
6 | GlyThrAsnTyrGly (GTNYG; printed: GlyThrAsnTyrGly) | 80.6 days
7 | GlyGlyAsnAlaGly (GGNAG; printed: GlyGlyAsnAlaGly) | 21.1 days
8 | GlyGluAsnLysGly (GENKG; printed: GlyGluAsnLysGly) | 77.8 days
9 | GlyProAsnTyrGly (GPNYG; printed: GlyProAsnTyrGly) | 114 days
10 | GlyMetAsnLysGly (GMNKG; printed: GlyMetAsnLysGly) | 60.4 days
11 | GlyProAsnLeuGly (GPNLG; printed: GlyProAsnLeuGly) | 181 days
12 | GlyAspAsnThrGly (GDNTG; printed: GlyAspAsnThrGly) | 52.4 days
13 | GlyPheAsnSerGly (GFNSG; printed: GlyPheAsnSerGly) | 18.1 days
14 | GlyGlyAsnIleGly (GGNIG; printed: GlyGlyAsnIleGly) | 287 days
15 | GlyGlyAsnArgGly (GGNRG; printed: GlyGlyAsnArgGly) | 57.8 days
16 | GlyAlaAsnAmCysGly | 40.6 days
17 | GlyGlyAsnProGly (GGNPG; printed: GlyGlyAsnProGly) | 7170 days

Row | Substance | First-Order Deamidation Halftimes of GlyXxxAsnYyyGly
18 | GlyHisAsnHisGly (GHNHG; printed: GlyHisAsnHisGly) | 10.7 days
19 | GlyIleAsnAlaGly (GINAG; printed: GlyIleAsnAlaGly) | 25.9 days
20 | GlyArgAsnAmCysGly | 42.3 days
21 | GlyTrpAsnSerGly (GWNSG; printed: GlyTrpAsnSerGly) | 15.5 days
22 | GlyProAsnPheGly (GPNFG; printed: GlyProAsnPheGly) | 100 days
23 | GlyValAsnAlaGly (GVNAG; printed: GlyValAsnAlaGly) | 27.5 days
24 | GlyAlaAsnThrGly (GANTG; printed: GlyAlaAsnThrGly) | 43.5 days
25 | GlyLysAsnTyrGly (GKNYG; printed: GlyLysAsnTyrGly) | 96.7 days
26 | GlyPheAsnLeuGly (GFNLG; printed: GlyPheAsnLeuGly) | 118 days
27 | GlyProAsnAmCysGly | 43.7 days
28 | GlyGluAsnValGly (GENVG; printed: GlyGluAsnValGly) | 268 days
29 | GlyAspAsnProGly (GDNPG; printed: GlyAspAsnProGly) | 11800 days
30 | GlyLeuAsnProGly (GLNPG; printed: GlyLeuAsnProGly) | 10500 days
31 | GlyMetAsnGlyGly (GMNGG; printed: GlyMetAsnGlyGly) | 1.04 days
32 | GlyGlyAsnAmCysGly | 27.6 days
33 | GlyAspAsnIleGly (GDNIG; printed: GlyAspAsnIleGly) | 298 days
34 | GlyArgAsnProGly (GRNPG; printed: GlyArgAsnProGly) | 5790 days

Same assay, conditions: pH 7.4, 37.0 ° C., 0.15 M Tris HCl; Gln pentapeptides; 52 values measured, rest derived from surface fitting

Row | Substance | First-Order Deamidation Halftimes of GlyXxxGlnYyyGly
35 | GlyTrpGlnIleGly (GWQIG; printed: GlyTrpGlnIleGly) | 8000 days
36 | GlyHisGlnSerGly (GHQSG; printed: GlyHisGlnSerGly) | 6300 days
37 | GlyTyrGlnArgGly (GYQRG; printed: GlyTyrGlnArgGly) | 8100 days
38 | GlyIleGlnCysGly (GIQCG; printed: GlyIleGlnCysGly) | 2000 days
39 | GlyHisGlnLeuGly (GHQLG; printed: GlyHisGlnLeuGly) | 6600 days
40 | GlyTrpGlnSerGly (GWQSG; printed: GlyTrpGlnSerGly) | 6500 days
41 | GlyPheGlnArgGly (GFQRG; printed: GlyPheGlnArgGly) | 7200 days
42 | GlyGlyGlnLysGly (GGQKG; printed: GlyGlyGlnLysGly) | 6000 days
43 | GlyProGlnArgGly (GPQRG; printed: GlyProGlnArgGly) | 6400 days
44 | GlyTrpGlnValGly (GWQVG; printed: GlyTrpGlnValGly) | 8200 days
45 | GlyAlaGlnPheGly (GAQFG; printed: GlyAlaGlnPheGly) | 7500 days
46 | GlyThrGlnSerGly (GTQSG; printed: GlyThrGlnSerGly) | 4200 days
47 | GlyGluGlnHisGly (GEQHG; printed: GlyGluGlnHisGly) | 2500 days
48 | GlyIleGlnAspGly (GIQDG; printed: GlyIleGlnAspGly) | 8100 days
49 | GlyAlaGlnCysGly (GAQCG; printed: GlyAlaGlnCysGly) | 1900 days
50 | GlyAlaGlnIleGly (GAQIG; printed: GlyAlaGlnIleGly) | 6200 days
51 | GlyGluGlnLeuGly (GEQLG; printed: GlyGluGlnLeuGly) | 4300 days
52 | GlyLysGlnTyrGly (GKQYG; printed: GlyLysGlnTyrGly) | 8800 days
53 | GlyLeuGlnLeuGly (GLQLG; printed: GlyLeuGlnLeuGly) | 6300 days
54 | GlyHisGlnGlyGly (GHQGG; printed: GlyHisGlnGlyGly) | 850 days

Row | Substance | First-Order Deamidation Halftimes of GlyXxxGlnYyyGly
55 | GlyCysGlnProGly (GCQPG; printed: GlyCysGlnProGly) | 7100 days
56 | GlyCysGlnGluGly (GCQEG; printed: GlyCysGlnGluGly) | 5600 days
57 | GlyCysGlnArgGly (GCQRG; printed: GlyCysGlnArgGly) | 5100 days
58 | GlyAspGlnTrpGly (GDQWG; printed: GlyAspGlnTrpGly) | 17000 days
59 | GlyMetGlnTyrGly (GMQYG; printed: GlyMetGlnTyrGly) | 8200 days
60 | GlyArgGlnIleGly (GRQIG; printed: GlyArgGlnIleGly) | 5500 days
61 | GlyTyrGlnValGly (GYQVG; printed: GlyTyrGlnValGly) | 8000 days
62 | GlyArgGlnLeuGly (GRQLG; printed: GlyArgGlnLeuGly) | 5400 days
63 | GlyPheGlnProGly (GFQPG; printed: GlyPheGlnProGly) | 10000 days
64 | GlyValGlnGluGly (GVQEG; printed: GlyValGlnGluGly) | 6500 days
65 | GlyHisGlnTrpGly (GHQWG; printed: GlyHisGlnTrpGly) | 18000 days
66 | GlyGlyGlnValGly (GGQVG; printed: GlyGlyGlnValGly) | 6500 days
67 | GlyIleGlnMetGly (GIQMG; printed: GlyIleGlnMetGly) | 5100 days
68 | GlyAspGlnSerGly (GDQSG; printed: GlyAspGlnSerGly) | 6200 days
69 | GlyIleGlnProGly (GIQPG; printed: GlyIleGlnProGly) | 10000 days
70 | GlyArgGlnGlyGly (GRQGG; printed: GlyArgGlnGlyGly) | 660 days
71 | GlyMetGlnValGly (GMQVG; printed: GlyMetGlnValGly) | 5000 days
72 | GlyHisGlnValGly (GHQVG; printed: GlyHisGlnValGly) | 6800 days
73 | GlyCysGlnMetGly (GCQMG; printed: GlyCysGlnMetGly) | 3200 days
